From paper PMC11869295, “Molecular Principles of Proton-Coupled Quinone Reduction in the Membrane-Bound Superoxide Oxidase” (Journal of the American Chemical Society, 2025)
Changes are numbered by the printed parent chain. Names and notes keep the numbering of the source. Values belong to the molecule of their own block, whether it stands above or below them.

Legend:
Experiment in all cases: WST-1 competition assay, decrease of formazan formation rate on SOO addition
[1] = molecular target: T1, superoxide oxidase (SOO); CybB (Escherichia coli, UniProt P0ABE5, H158A); type: biochemical; details: apparent Km; forward reaction, superoxide from xanthine oxidase/hypoxanthine, bo3 oxidase regenerates quinone, 50 nM SOO, 100 mM sodium phosphate pH 8, 0.05% DDM; range printed jointly for H158A and H
T1 construct: full length with C-terminal 8xHis tag, expressed in E. coli BL21(DE3) pLysS, membrane protein purified in detergent (OGNG, assayed in DDM), two b hemes
T1 sequence (P0ABE5 whole entry H158A): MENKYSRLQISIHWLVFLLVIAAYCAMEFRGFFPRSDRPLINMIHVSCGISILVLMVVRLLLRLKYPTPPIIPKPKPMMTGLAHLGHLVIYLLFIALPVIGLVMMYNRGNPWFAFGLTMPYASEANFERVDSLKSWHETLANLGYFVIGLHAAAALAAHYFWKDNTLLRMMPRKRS

[2] = molecular target: T2, superoxide oxidase (SOO); CybB (Escherichia coli, UniProt P0ABE5, H158F); type: biochemical; details: apparent Km; forward reaction, superoxide from xanthine oxidase/hypoxanthine, bo3 oxidase regenerates quinone, 50 nM SOO, 100 mM sodium phosphate pH 8, 0.05% DDM; range printed jointly for H158A and H
T2 construct: full length with C-terminal 8xHis tag, expressed in E. coli BL21(DE3) pLysS, membrane protein purified in detergent (OGNG, assayed in DDM), two b hemes
T2 sequence (P0ABE5 whole entry H158F): as the sequence (P0ABE5 whole entry H158A) above, with A158F counted along it

[3] = substrate: COC1=C(OC)C(=O)C(C/C=C(\C)CCC=C(C)C)=C(C)C1=O; type: biochemical, Escherichia coli; details: apparent Km, forward reaction, superoxide from xanthine oxidase/hypoxanthine, bo3 oxidase regenerates quinone, 50 nM SOO, 100 mM sodium phosphate pH 8, 0.05% DDM

Km [1]: 8 to 13 µM
Km [2]: 8 to 13 µM
Molecule: COC1=C(OC)C(=O)C(C/C=C(\C)CCC=C(C)C)=C(C)C1=O [ubiquinone Q2]

B1: superoxide oxidase (SOO); CybB (Escherichia coli K-12) (protein)
chain: MENKYSRLQISIHWLVFLLVIAAYCAMEFRGFFPRSDRPLINMIHVSCGISILVLMVVRLLLRLKYPTPPIIPKPKPMMTGLAHLGHLVIYLLFIALPVIGLVMMYNRGNPWFAFGLTMPYASEANFERVDSLKSWHETLANLGYFVIGLHAAAALAHHYFWKDNTLLRMMPRKRS
notes: full length with C-terminal 8xHis tag, expressed in E. coli BL21(DE3) pLysS, membrane protein purified in detergent (OGNG, assayed in DDM), two b hemes
Km [3]: 0.4 µM

B2: superoxide oxidase (SOO); CybB (Escherichia coli K-12; D164E) (protein)
chain: B1 chain with D164E
notes: as for B1
Km [3]: 3 µM

B3: superoxide oxidase (SOO); CybB (Escherichia coli K-12; D164A) (protein)
chain: B1 chain with D164A
notes: as for B1
Km [3]: 5 µM
